Experimental data: patent CN111320686A
Values joined by “and” are separate entries in the source; they are usually repeats but may differ in a detail not shown here. Identical values can stand only once.

Tests used:
[1] = target: H7N9病毒的HA蛋白(购自ACROBiosystems) (H7N9 influenza virus)
[2] = target: H7N9病毒的HA蛋白(购自ACROBiosystems) (H7N9 influenza virus); remark: listed apart in the source
[3] = target: H7N9病毒 A/Anhui/1/2013 的血凝素HA (on live virus) (H7N9 influenza virus A/Anhui/1/2013); assay: cell-based or functional assay

B1: 抗H7N9全人源单克隆抗体2G3 (antibody, V domains shown)
VH: QVQLVESGAEVKKPGASVKVSCKASGYIFTSYEINWVRQATGQGLEWMGWMNPESGETGFAQKFQGRVTMTRNTSITTAYMELSSLTSEDTAVYYCATGNAECSGGSCYNWFEPWGQGTLVTVSS
VL: SSELTQDPAVSVALGQTVRITCQGDKLKSYYASWYQQKPGQAPVLVIYGRNNRPSGIPDRFSGSSSGNTASLTITGAQAEDEADYYCNSKETSGYHLVFGGGTKLTVLV
With B1 the Kd [1] was 2.3 nM, the 450nm (OD) [2] was 1.6 OD 450nm and 2 OD 450nm and 1.78 OD 450nm and the 微量中和-ELISA (MDCK细胞, 100TCID50 病毒) IC50 [3] was 0.0711 µg/mL.
